In patent WO2010064089A1 (dated 2010):
Positions count from the first letter of the chain named.

B1: [224G11][Hz1] (antibody, V domains shown)
VH: QVQLVQSGAEVKKPGASVKVSCKASGYIFTAYTMHWVRQAPGQGLEWMGWIKPNNGLANYAQKFQGRVTMTRDTSISTAYMELSRLRSDDTAVYYCARSEITTEFDYWGQGTLVTVSS
VL: DIVLTQSPDSLAVSLGERATINCKSSESVDSYANSFMHWYQQKPGQPPKLLIYRASTRESGVPDRFSGSGSRTDFTLTISSLQAEDVAVYYCQQSKEDPLTFGGGTKVEIKR
B2: [224G11][TH7 Hz3] (antibody, V domains shown)
VH: B1 VH
VL: B1 VL with L4M, M37L, R72G
B3: [224G11][Hz2] (antibody, V domains shown)
VH: B1 VH
VL: B1 VL with L4M, R72G
B4: [224G11][TH7 Hz1] (antibody, V domains shown)
VH: B1 VH
VL: B1 VL
B5: [224G11][Hz3] (antibody, V domains shown)
VH: B1 VH
VL: B1 VL with L4M, M37L, R72G
B6: murine 224G11 Mab (antibody, mouse IgG1, V domains shown)
VH: EVQLQQSGPELVKPGASVKISCKTSGYIFTAYTMHWVRQSLGESLDWIGGIKPNNGLANYNQKFKGKATLTVDKSSSTAYMDLRSLTSEDSAVYYCARSEITTEFDYWGQGTALTVSS
VL: DIVLTQSPASLAVSLGQRATISCRASESVDSYANSFMHWYQQKPGQPPKLLIYRASNLESGIPARFSGSGSRTDFTLTINPVEADDVATYYCQQSKEDPLTFGSGTKLEMKR
B7: [224G11][MH chim] (antibody, human IgG1, V domains shown)
VH: B6 VH
VL: B6 VL
B8: [224G11][MUP9H chim] (antibody, human IgG1, V domains shown)
VH: B6 VH
VL: B6 VL
B9: [224G11]chim (antibody, human IgG1, V domains shown)
VH: B6 VH
VL: B6 VL
B10: [224G11][MMCH chim] (antibody, human IgG1, V domains shown)
VH: B6 VH
VL: B6 VL
B11: [224G11][TH7 chim] (antibody)
heavy: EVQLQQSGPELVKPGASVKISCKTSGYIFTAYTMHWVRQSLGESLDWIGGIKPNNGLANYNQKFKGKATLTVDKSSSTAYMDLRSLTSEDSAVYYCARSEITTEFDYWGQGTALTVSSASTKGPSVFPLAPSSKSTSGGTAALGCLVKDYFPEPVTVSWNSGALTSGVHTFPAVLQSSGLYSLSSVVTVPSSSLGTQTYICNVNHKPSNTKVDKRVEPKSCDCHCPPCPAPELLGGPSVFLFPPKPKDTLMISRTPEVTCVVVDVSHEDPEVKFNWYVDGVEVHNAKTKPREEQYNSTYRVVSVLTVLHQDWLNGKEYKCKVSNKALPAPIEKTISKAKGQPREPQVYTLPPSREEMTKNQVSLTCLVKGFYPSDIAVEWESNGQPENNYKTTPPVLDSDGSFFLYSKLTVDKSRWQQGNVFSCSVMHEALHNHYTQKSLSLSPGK
light: DIVLTQSPASLAVSLGQRATISCRASESVDSYANSFMHWYQQKPGQPPKLLIYRASNLESGIPARFSGSGSRTDFTLTINPVEADDVATYYCQQSKEDPLTFGSGTKLEMKRTVAAPSVFIFPPSDEQLKSGTASVVCLLNNFYPREAKVQWKVDNALQSGNSQESVTEQDSKDSTYSLSSTLTLSKADYEKHKVYACEVTHQGLSSPVTKSFNRGEC

What follows are binders tested against human c-Met receptor on tumor cells (A549, NCI-H441, BxPC3) (human, UniProt P08581 25-1390) (assay: cell-based or functional assay).

Binder	inhibition of HGF-induced proliferation of NCI-H441 cells (Figure 14A)	inhibition of HGF-induced proliferation of NCI-H441 cells (Figure 15)	inhibition of HGF-induced proliferation of NCI-H441 cells (Figure 14B)
B1	~46%		
B2		76%	
B3	~30%		
B4		67%	
B5	~35%		
B6	66%	74%	57%
B7			79%
B8			78%
B9	19%	33%	
B10			84%
B11		81%	93%
